This passage reports extent of PCNA depletion results from paper PMC4117764.

In this assay the target is GST-tagged p21C-terminal peptide. The experiment in a line: pull-down.

“proliferating cell nuclear antigen (PCNA), endogenous (from UniProt P12004 1-261) (natural protein)”: the extent of PCNA depletion is greater than 95%.
